{"source": "the Immune Epitope Database (IEDB)", "assay_in_all_cases": "IEDB peptide-MHC binding, purified MHC/competitive/fluorescence; filed as Kd, often an IC50 or EC50 that approximates it; ≥ and ≤ were set here for values at or beyond the usual limits of such assays", "details_in_all_cases": "source organism: Entamoeba histolytica HM-1:IMSS", "key": {"[1]": {"target": "HLA-A*29:02"}, "[2]": {"target": "HLA-B*53:01"}, "[3]": {"target": "HLA-B*40:01"}, "[4]": {"target": "HLA-B*39:01"}, "[5]": {"target": "HLA-B*46:01"}, "[6]": {"target": "HLA-A*68:02"}, "[7]": {"target": "HLA-B*44:02"}, "[8]": {"target": "HLA-A*23:01"}, "[9]": {"target": "HLA-B*15:17"}, "[10]": {"target": "HLA-A*02:19"}, "[11]": {"target": "HLA-B*14:02"}, "[12]": {"target": "HLA-A*02:12"}, "[13]": {"target": "HLA-A*30:01"}, "[14]": {"target": "HLA-A*03:01"}, "[15]": {"target": "HLA-B*15:01"}, "[16]": {"target": "HLA-B*58:01"}, "[17]": {"target": "HLA-A*11:01"}, "[18]": {"target": "HLA-A*02:01"}, "[19]": {"target": "HLA-A*30:02"}, "[20]": {"target": "HLA-A*02:11"}, "[21]": {"target": "HLA-B*57:01"}, "[22]": {"target": "HLA-B*27:03"}, "[23]": {"target": "HLA-B*08:01"}, "[24]": {"target": "HLA-A*01:01"}}}
{"sequence": "EVIRATYPS", "values": [{"measurement": "Kd", "setting": "[1]", "value": "≥ 20", "unit": "µM"}, {"measurement": "Kd", "setting": "[2]", "value": "≥ 5", "unit": "µM"}, {"measurement": "Kd", "setting": "[3]", "value": "≥ 5", "unit": "µM"}, {"measurement": "Kd", "setting": "[4]", "value": "≥ 20", "unit": "µM"}, {"measurement": "Kd", "setting": "[5]", "value": "≥ 20", "unit": "µM"}, {"measurement": "Kd", "setting": "[6]", "value": 0.0002, "unit": "µM"}, {"measurement": "Kd", "setting": "[7]", "value": "≥ 5", "unit": "µM"}, {"measurement": "Kd", "setting": "[8]", "value": "≥ 20", "unit": "µM"}, {"measurement": "Kd", "setting": "[9]", "value": "≥ 20", "unit": "µM"}, {"measurement": "Kd", "setting": "[10]", "value": "≥ 20", "unit": "µM"}, {"measurement": "Kd", "setting": "[11]", "value": "≥ 5", "unit": "µM"}, {"measurement": "Kd", "setting": "[12]", "value": "≥ 20", "unit": "µM"}, {"measurement": "Kd", "setting": "[13]", "value": "≥ 5", "unit": "µM"}, {"measurement": "Kd", "setting": "[14]", "value": "≥ 20", "unit": "µM"}, {"measurement": "Kd", "setting": "[15]", "value": "≥ 20", "unit": "µM"}, {"measurement": "Kd", "setting": "[16]", "value": "≥ 5", "unit": "µM"}, {"measurement": "Kd", "setting": "[17]", "value": "≥ 5", "unit": "µM"}, {"measurement": "Kd", "setting": "[18]", "value": "≥ 20", "unit": "µM"}, {"measurement": "Kd", "setting": "[19]", "value": "≥ 5", "unit": "µM"}, {"measurement": "Kd", "setting": "[20]", "value": "≥ 20", "unit": "µM"}, {"measurement": "Kd", "setting": "[21]", "value": "≥ 20", "unit": "µM"}, {"measurement": "Kd", "setting": "[22]", "value": "≥ 20", "unit": "µM"}, {"measurement": "Kd", "setting": "[23]", "value": "≥ 5", "unit": "µM"}, {"measurement": "Kd", "setting": "[24]", "value": "≥ 5", "unit": "µM"}]}
